Data on 16 molecules can be found in patent publication US20120237528A1 (Janssen / Centocor, published 2012).

Numbering of substitutions follows the chain as printed.

To fix the notation:
T1: Cynomolgous monkey (cyno) TF-ECD with His Tag (cynomolgus monkey, UniProt P13726 33-251 (human entry))
T1 construct: also called cyno antigen
T1 chain: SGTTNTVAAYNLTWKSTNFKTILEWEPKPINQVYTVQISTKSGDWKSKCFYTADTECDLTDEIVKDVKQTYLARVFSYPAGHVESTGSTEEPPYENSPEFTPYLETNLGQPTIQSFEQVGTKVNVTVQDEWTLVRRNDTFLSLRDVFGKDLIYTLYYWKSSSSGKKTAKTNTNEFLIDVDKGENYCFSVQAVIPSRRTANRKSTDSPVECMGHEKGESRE

B1: M26 (antibody, V domains shown)
VH: QVQLVQSGAEVKKPGASVKVSCKASGYTFITYWIEWVRQAPGQRLEWMGDILPGSGSTNYNENFKGRVTITRDTSASTAYMELSSLRSEDTAVYYCARSGYYGNSGFAYWGQGTLVTVSS
VL: DIVMTQTPLSLSVTPGQPASISCKSSQSLLSSGNQKNYLTWYLQKPGQPPQLLIYWASTRESGVPDRFSGSGSGTDFTLKISRVEAEDVGVYYCQNDYTYPLTFGQGTKLEIK
notes: complete MAb; FR4 is its own entry; also called H17/L5
B2: M68 (antibody, V domains shown)
VH: B1 VH with A16S, R44G, N61A, E62Q, N63K, K65Q, R72A, T74E, A76T
VL: B1 VL
notes: complete MAb; FR4 is its own entry; also called H23/L5
B3: M42 (antibody, V domains shown)
VH: B1 VH with A16S, R44G, R72A, T74E, A76T
VL: B1 VL with L11S, S12P, P15L, Y42L, L43Q, K45R, Q51R, S73A
notes: complete MAb; FR4 is its own entry; also called H19/L7
B4: M52 (antibody, V domains shown)
VH: EVQLVQSGAEVKKPGATVKISCKVSGYTFITYWIEWVQQAPGKGLEWMGDILPGSGSTNYNENFKGRVTITADTSTDTAYMELSSLRSEDTAVYYCATSGYYGNSGFAYWGQGTLVTVSS
VL: B1 VL with S12P, Q17E, P49S
notes: complete MAb; FR4 is its own entry; also called H21/L3
B5: M46 (antibody, V domains shown)
VH: B1 VH with R44G, I70M, R72T, A76T, S84R, E89D
VL: B1 VL with T7S, S12P, Q17E, P49S
notes: complete MAb; FR4 is its own entry; also called H20/L4
B6: M37 (antibody, V domains shown)
VH: B1 VH with A16S, R44G, R72A, T74E, A76T
VL: DIVMTQSPDSLAVSLGERATINCKSSQSLLSSGNQKNYLTWYQQKPGQPPKLLIYWASTRESGVPDRFSGSGSGTDFTLTISSLQAEDVAVYYCQNDYTYPLTFGQGTKLEIK
notes: complete MAb; FR4 is its own entry; also called H19/L2
B7: M51 (antibody, V domains shown)
VH: B4 VH
VL: B6 VL
notes: complete MAb; FR4 is its own entry; also called H21/L2
B8: M10 (antibody, V domains shown)
VH: EVQLVQSGAEVKKPGESLRISCKGSGYTFITYWIEWVRQMPGKGLEWMGDILPGSGSTNYNENFKGHVTISADKSISTAYLQWSSLKASDTAMYYCARSGYYGNSGFAYWGQGTLVTVSS
VL: B1 VL with S12P, Q17E, P49S
notes: complete MAb; FR4 is its own entry; also called H15/L3
B9: M54 (antibody, V domains shown)
VH: B4 VH
VL: B1 VL
notes: complete MAb; FR4 is its own entry; also called H21/L5
B10: M31 (antibody, V domains shown)
VH: EVQLVESGGGLVQPGGSLRLSCAASGYTFITYWIEWVRQAPGKGLVWVSDILPGSGSTNYNENFKGRFTISRDNAKNTLYLQMNSLRAEDTAVYYCARSGYYGNSGFAYWGQGTLVTVSS
VL: B1 VL with S12P, Q17E, P49S
notes: complete MAb; FR4 is its own entry; also called H18/L3
B11: M32 (antibody, V domains shown)
VH: B10 VH
VL: B1 VL with T7S, S12P, Q17E, P49S
notes: complete MAb; FR4 is its own entry; also called H18/L4
B12: M33 (antibody, V domains shown)
VH: B10 VH
VL: B1 VL
notes: complete MAb; FR4 is its own entry; also called H18/L5
B13: M56 (antibody, V domains shown)
VH: B4 VH
VL: B1 VL with L11S, S12P, P15L, Y42L, L43Q, K45R, Q51R, S73A
notes: complete MAb; FR4 is its own entry; also called H21/L7
B14: M35 (antibody, V domains shown)
VH: B10 VH
VL: B1 VL with L11S, S12P, P15L, Y42L, L43Q, K45R, Q51R, S73A
notes: complete MAb; FR4 is its own entry; also called H18/L7
B15: M30 (antibody, V domains shown)
VH: B10 VH
VL: B6 VL
notes: complete MAb; FR4 is its own entry; also called H18/L2
B16: M53 (antibody, V domains shown)
VH: B4 VH
VL: B1 VL with T7S, S12P, Q17E, P49S
notes: complete MAb; FR4 is its own entry; also called H21/L4

In one assay the target is T2, recombinant extracellular domain (ECD) of human TF, amino acid 1-219 of the mature chain, C-terminal His6-tag (human, UniProt P13726 33-251).
T2 construct: expressed in a mammalian system; used for ELISA and Biacore; biotinylated by NHS-ester for the Fab ELISA; also called His6-TF-ECD1-219; HumanTF1-219
In words: Biacore.
Consider B1, for which the Kd is 1.13 nM, the koff amounted to 9.3e-05 s⁻¹ and the kon is 82600 M⁻¹ s⁻¹.
For B2, in that order: 1.6 nM, 0.000103 s⁻¹ and 64300 M⁻¹ s⁻¹.
As to B3, the Kd was 1.02 nM, the koff stood at 8.2e-05 s⁻¹ and the kon came to 80400 M⁻¹ s⁻¹.
For B4, in that order: 3.57 nM, 0.000264 s⁻¹ and 74000 M⁻¹ s⁻¹.
The corresponding values for B5 are 0.49 nM, 4.4e-05 s⁻¹ and 90000 M⁻¹ s⁻¹.
For B6, the Kd was 0.54 nM, the off-rate constant (koff) was found to be 3.7e-05 s⁻¹ and the association rate constant (kon) came to 69000 M⁻¹ s⁻¹.
For B7, in that order: 2.9 nM, 0.000235 s⁻¹ and 81100 M⁻¹ s⁻¹.

The target of another assay is Innovin, lyophilized recombinant human tissue factor combined with phospholipids (human, UniProt P13726 33-295, limits assumed). In words: cell-based or functional assay.
For the molecule B8, the “T½ Max (seconds), coagulation of human plasma” value (“T½ Max (seconds), coagulation” below) amounted to 196 s.
On the same count and under the same terms, to B1 belongs 186 s; to B2, 207 s.
For B3, the “T½ Max (seconds), coagulation” value came out at 202 s.
On to B4, for which the “T½ Max (seconds), coagulation” value stood at 201 s.
Regarding B5, the “T½ Max (seconds), coagulation” value turned out to be 195 s.
As to B6, the “T½ Max (seconds), coagulation” value came out at 196 s.
Same read-out and setting: under B7 stands 207 s.

Another assay has as its target T2, recombinant extracellular domain (ECD) …. The assay is described as follows: direct ELISA, 50 ng/ml. (In general: An ELISA detects its analyte on a solid surface through an enzyme-linked reagent.)
Regarding B9, the binding result was “binds”.
For the molecule B10, the binding result was “binds”.
The same measure, in the same setting: under B11 stands “binds”.
As to B12, the binding result is listed as “binds”.
Still for that read-out and setting: to B13 belongs “binds”; to B14, “binds”.
As for B15, the binding result was “binds”.

The target of a further assay is T1, Cynomolgous monkey (cyno) TF-ECD with …. The assay is described as follows: Biacore. A general note: SPR reads the build-up and loss of mass on a sensor chip optically.
As to B8, the Kd was determined as 1.57 nM.

The target is the same in another assay. In words: TF-ECD binding ELISA, chemiluminescent.
For the molecule B8, the response was half-maximal at 0.0196 µg/mL (EC50).

In another assay the target is T2, recombinant extracellular domain (ECD) …. In words: TF-ECD binding ELISA, chemiluminescent.
Consider B8, for which the EC50 is 0.0105 µg/mL.

The target of another assay is T1, Cynomolgous monkey (cyno) TF-ECD with …. The assay is described as follows: direct ELISA of supernatants, chemiluminescent. The method, then: A solution Phase direct TF binding ELISA using chemiluminescent detection was used to rank the top binders from human framework adaptation library. The 96 well black maxisorp plates were coated with 100 uL of 4 ug/ml Goat anti human IgG FC diluted in carbonate-bicarbonate buffer, pH 9.4 at 4° C. overnight and then washed thrice with wash buffer (PBS with 0.05% Tween-20 solution) and blocked with […] 1% BSA/10 mM PBS solution for 1 hour followed by a washing as before. Samples or standards were diluted to 50 ng/ml in Assay Buffer (1% BSA in PBS+05% Tween) and 100 ul was added to the assay plate at room temperature for 1 hour with shaking. The plates were washed thrice and 100 ul per well of human or cynomologus TF-ECD with His Tag was added at 100 ng/ml diluted in Assay Buffer and incubate for 2 hours at room temperature. After washing, 100 ul per well of Qiagen peroxidase conjugated penta-his at 1:2000 dilution in assay buffer was added and incubated 1 hour at room temperature with shaking. The BM ChemiLum Substrate (BM Chemilum, POD, Roche) was made freshly at 1:100 dilution into Buffer and 100 ul added to the plates after a final wash. After 10 minutes the plates are read on Perkin Elmer Envision Reader, BM ChemiLum program.
For primary screening of library variants in crude supernatants, samples or controls were normalized to 50 ng/ml in spent FreeStyle 293 HEK media (Gibco) and assayed at single concentration determinations. In the present assay, the concentration of antibody was 5 ng (0.1 ml used) and the TF ECD and the antigen was His6-TF-ECD₁₋₂₁₉ used at a final concentration of 10 ng/well.
As to B9, the binding result is reported as “no binding (tested: 50 ng/ml)”.
In the case of B10, the binding result was “no binding (tested: 50 ng/ml)”.
Still for that read-out and setting: to B11 belongs “no binding (tested: 50 ng/ml)”.
Regarding B16, the binding result is “no binding (tested: 50 ng/ml)”.
On the same count and under the same terms, under B12 stands “no binding (tested: 50 ng/ml)”; under B4, “no binding (tested: 50 ng/ml)”.
Take B13: the binding result was “no binding (tested: 50 ng/ml)”.
Still for that read-out and setting: to B14 belongs “no binding (tested: 50 ng/ml)”.
The same measure, in the same setting: under B15 stands “no binding (tested: 50 ng/ml)”; under B7, “no binding (tested: 50 ng/ml)”.

Another assay concerns the target endogenous human tissue factor on MDA-MB-231 breast cancer cells (human, UniProt P13726 33-295). The assay is described as follows: cell-based or functional assay.
Regarding B8, the “% IL-8 Inhibition” value was determined as 90.7%.
Same read-out and setting: under B1 stands 79.1%.
Regarding B2, the “% IL-8 Inhibition” value stood at 89.8%.
As to B3, the “% IL-8 Inhibition” value was 86%.
Take B4: the “% IL-8 Inhibition” value was determined as 67.7%.
In the case of B5, the “% IL-8 Inhibition” value worked out at 82.5%.
The same measure, in the same setting: to B6 belongs 71.2%; to B7, 71.5%.

As a reminder, the Kd is the equilibrium constant for the complex coming apart. One may read the koff as the rate constant with which the complex falls apart. As usually defined, the kon is the second-order rate constant of association. What is called EC50 is the concentration that produces a half-maximal response.
